The record followed here is publication PMC8809517, “Cofactor-independent RNA editing by a synthetic S-type PPR protein”.

Test in all cases: high-throughput RNA pulldown from lysate on Ni-NTA beads; HRP: 50 mM Tris pH 8, 150 mM NaCl, 1 mM beta-mercaptoethanol, 50 ug/ml BSA, 3 ug/ml yeast RNA, 0.5% heparin; ITC and FP: Tris pH 8, 200 mM KCl, 5% glycerol; MST: 50 mM Tris pH 8, 200 mM NaCl, 1 mM DTT, BSA, heparin, 0.05% Tween 20
Conditions in all cases: tags: N-terminal His-eGFP

Data set [1] deals with T1, GFP-9S library array, motif 4 ND N98S;D124L (synthetic construct, N98S;D124L).
T1 chain: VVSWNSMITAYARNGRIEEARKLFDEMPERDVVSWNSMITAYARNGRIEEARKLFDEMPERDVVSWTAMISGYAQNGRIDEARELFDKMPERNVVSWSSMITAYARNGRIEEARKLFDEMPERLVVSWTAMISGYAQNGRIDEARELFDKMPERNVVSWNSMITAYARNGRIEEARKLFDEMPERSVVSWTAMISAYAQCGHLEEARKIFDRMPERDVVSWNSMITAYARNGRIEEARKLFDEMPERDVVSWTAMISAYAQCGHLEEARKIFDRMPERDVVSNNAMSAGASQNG

In data set [2] the target is T2, GFP-9S library array, motif 4 ND N98S;D124K (synthetic construct, N98S;D124K).
T2 chain: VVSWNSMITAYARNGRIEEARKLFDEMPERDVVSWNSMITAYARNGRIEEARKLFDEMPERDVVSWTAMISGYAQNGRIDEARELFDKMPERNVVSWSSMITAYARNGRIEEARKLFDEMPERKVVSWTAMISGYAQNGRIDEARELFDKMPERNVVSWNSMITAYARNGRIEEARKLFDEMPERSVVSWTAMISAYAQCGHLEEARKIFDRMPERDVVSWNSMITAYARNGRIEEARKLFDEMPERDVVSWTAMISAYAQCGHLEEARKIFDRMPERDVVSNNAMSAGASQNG

The target in data set [3] is T3, GFP-9S library array, motif 4 ND N98L;D124A (synthetic construct, N98L;D124A).
T3 chain: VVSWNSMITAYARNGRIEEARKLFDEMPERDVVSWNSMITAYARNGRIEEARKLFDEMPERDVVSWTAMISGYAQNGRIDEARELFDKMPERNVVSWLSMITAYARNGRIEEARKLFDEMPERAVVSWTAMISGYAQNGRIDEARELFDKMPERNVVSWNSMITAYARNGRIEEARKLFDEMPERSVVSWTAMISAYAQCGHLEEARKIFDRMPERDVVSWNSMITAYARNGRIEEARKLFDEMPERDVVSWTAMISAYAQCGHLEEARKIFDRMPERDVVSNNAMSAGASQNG

In data set [4] the target is T4, GFP-9S library array, motif 4 ND N98T;D124A (synthetic construct, N98T;D124A).
T4 chain: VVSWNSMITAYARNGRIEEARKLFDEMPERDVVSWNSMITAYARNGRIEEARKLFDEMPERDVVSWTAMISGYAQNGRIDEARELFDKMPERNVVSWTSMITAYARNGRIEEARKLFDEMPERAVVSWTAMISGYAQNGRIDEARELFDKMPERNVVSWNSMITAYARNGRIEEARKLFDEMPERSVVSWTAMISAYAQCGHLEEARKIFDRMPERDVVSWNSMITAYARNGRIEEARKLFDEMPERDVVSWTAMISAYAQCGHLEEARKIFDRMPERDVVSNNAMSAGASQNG

Data set [5] has as its target T5, GFP-9S library array, motif 4 ND N98F;D124R (synthetic construct, N98F;D124R).
T5 chain: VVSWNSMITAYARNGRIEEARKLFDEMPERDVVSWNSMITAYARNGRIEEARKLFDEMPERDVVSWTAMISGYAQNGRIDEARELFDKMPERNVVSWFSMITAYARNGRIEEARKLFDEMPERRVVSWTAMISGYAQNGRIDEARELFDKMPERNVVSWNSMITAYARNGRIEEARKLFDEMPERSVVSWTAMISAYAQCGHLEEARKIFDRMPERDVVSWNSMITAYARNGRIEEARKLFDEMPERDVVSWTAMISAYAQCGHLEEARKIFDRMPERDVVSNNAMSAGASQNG

What is called Kd is the constant that tells how readily two partners part at equilibrium. Higher therefore signals weaker binding.

Take AUUAUACGUGA (ssRNA) [IR-rpoA-U]: the Kd in data set [1] (label: 5' IRDye 800CW) is 164 nM; in data set [2] (label: 5' IRDye 800CW) it was 105 nM; in data set [3] (label: 5' IRDye 800CW), 43.4 nM; in data set [4] (label: 5' IRDye 800CW) it was 173 nM; in data set [5] (label: 5' IRDye 800CW), 176 nM.

In the case of AUUAGACGUGA (ssRNA) [Cy5-rpoA-G], the dissociation constant (Kd) in data set [1] (label: 5' Cy5) was 94 nM; in data set [2] (label: 5' Cy5), 104 nM; in data set [3] (label: 5' Cy5), 71.4 nM; in data set [4] (label: 5' Cy5), 70.1 nM; in data set [5] (label: 5' Cy5), 107 nM.

As to AUUACACGUGA (ssRNA) [Cy5-rpoA], the Kd in data set [1] (label: 5' Cy5) turned out to be 83.5 nM; in data set [2] (label: 5' Cy5), 86.7 nM; in data set [3] (label: 5' Cy5), 47.4 nM; in data set [4] (label: 5' Cy5), 107 nM; in data set [5] (label: 5' Cy5), 117 nM.

On to AUUAAACGUGA (ssRNA) [IR-rpoA-A], for which the Kd in data set [1] (label: 5' IRDye 800CW) worked out at 159 nM; in data set [2] (label: 5' IRDye 800CW), 134 nM; in data set [3] (label: 5' IRDye 800CW), 90.9 nM; in data set [4] (label: 5' IRDye 800CW) it was 52.8 nM; in data set [5] (label: 5' IRDye 800CW), 85.1 nM.
